# Test results published in patent publication US20070092508A1, “Detoxification depot for Alzheimer's disease” (Recombiant Technologies, LLC, priority 2005, published 2007).
# Non-standard residues stand in square brackets, D forms with d. No end group written: not given here.
# Columns and labels:
# [1] = molecular target: T1, biotinylated Aβ^1-40 peptide (Homo sapiens, UniProt P05067); test: Direct ELISA: plate-immobilised capture peptide probed with biotinylated Aβ1-40; format: binding; conditions: 1 μg/well capture peptide, 1 μg/ml biotinylated Aβ, 2 hours; compared with scrambled or irrelevant control peptide (FIG. 1a)
# T1 construct: purchased
# T1 sequence (P05067 672-711): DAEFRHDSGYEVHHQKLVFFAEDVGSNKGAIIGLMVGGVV
# Method: (§1) FIG. 1a graphically illustrates binding of biotinylated Aβ^1-42 and biotinylated Aβ^1-40 peptide (SEQ ID NO: 2) by RI peptide. 96-well plate was coated with the capture peptide (1 μg/well of retro-inverso [RI], scrambled [SCR] or an irrelevant control peptide), blocked with gelatin and probed with 1 μg/ml of biotinylated Aβ peptide for 2 hours and streptavidin peroxidase for 1 hour. Experiments were repeated and were calculated as Mean±SE (N=2) and expressed as pmols Aβ^1-42/ml of binding solution. Graded concentrations of biotinylated Aβ^1-42 peptide (SEQ ID NO: 3) was used as a calibration standard.
# (§2) Testing the binding and stability of biotinylated Aβ peptides in binding solution.
# [2] = molecular target: T2, biotinylated Aβ^1-42 peptide (Homo sapiens, UniProt P05067); test: Direct ELISA: plate-immobilised capture peptide probed with biotinylated Aβ1-42; format: binding; conditions: 1 μg/well capture peptide, 1 μg/ml biotinylated Aβ, 2 hours; compared with scrambled or irrelevant control peptide (FIG. 1a)
# T2 construct: purchased
# T2 sequence (P05067 672-713): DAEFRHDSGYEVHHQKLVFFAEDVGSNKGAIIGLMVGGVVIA
# Method: as §1, §2
# [3] = system: Aβ; conditions: AD model mice, after 1 day of treatment; cited from earlier work
# Aβ, sequence (P05067 672-711 limits assumed): as the sequence (P05067 672-711) above
# [4] = molecular target: Aβ (Homo sapiens, UniProt P05067); conditions: shortest fragment of Aβ1-40; cited from earlier work
# Aβ (Homo sapiens, UniProt P05067), sequence (P05067 672-711 limits assumed): as the sequence (P05067 672-711) above
# [5] = molecular target: Aβ fibril formation (Homo sapiens, UniProt P05067); conditions: microscopy; cited from earlier work
# Aβ fibril formation, sequence (P05067 672-711 limits assumed): as the sequence (P05067 672-711) above
# [6] = molecular target: biotinylated Abeta 1-40 peptide; test: binding experiments with the gel, ELISA of the solution
# biotinylated Abeta 1-40 peptide, sequence (peptide, as listed by the source): as the sequence (P05067 672-711) above
molecule,measurement,setting,value
phe-phe-val-leu-lys-Cys ([dF][dF][dV][dL][dK][dC]; not fully specified (C-terminus); printed as phe-phe-val-leu-lys-cys) [RI peptide],binding of biotinylated Aβ^1-40 to immobilised peptide,[1],significant and specific binding
same,binding of biotinylated Aβ^1-42 to immobilised peptide,[2],significant and specific binding
GM1,levels of Aβ in brain,[3],reduced in half
same,reduction of Aβ in brain,[3],~500 ng/g tissue
gelsolin,levels of Aβ in brain,[3],reduced in half
same,reduction of Aβ in brain,[3],~500 ng/g tissue
KLVFF,Aβ binding capacity,[4],consistently high Aβ binding capacity
same,effect on fibril formation in vitro,[5],able to interfere with fibril formation
FFVLKC (not fully specified; composed of D-amino acids; Cys thiol linked to vinyl sulfone-PEG of the gel matrix; C-terminus amidated per the note to Table 1),percent of possible binding in a 1:1 complex,[6],5%
